Data from patent publication US20250171542A1 (ADEPT THERAPEUTICS, published 2025).

T1: B7-H3 (Sino Biological, Cat #11188-H08H) (UniProt Q5ZPR3 29-461)
T1 sequence (looked up): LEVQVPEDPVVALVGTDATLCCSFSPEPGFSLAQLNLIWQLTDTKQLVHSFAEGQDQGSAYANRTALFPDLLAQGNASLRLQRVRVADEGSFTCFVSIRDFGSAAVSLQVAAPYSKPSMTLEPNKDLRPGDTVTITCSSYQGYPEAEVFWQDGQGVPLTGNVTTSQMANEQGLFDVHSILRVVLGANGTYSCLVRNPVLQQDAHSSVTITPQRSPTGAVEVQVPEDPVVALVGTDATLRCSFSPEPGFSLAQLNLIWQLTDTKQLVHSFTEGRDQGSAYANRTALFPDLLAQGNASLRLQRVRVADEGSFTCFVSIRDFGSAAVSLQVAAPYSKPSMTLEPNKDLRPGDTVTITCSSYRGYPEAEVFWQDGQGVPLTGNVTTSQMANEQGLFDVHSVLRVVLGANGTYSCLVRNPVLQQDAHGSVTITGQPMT

T2: PD-L2 (Sino Biological, Cat #10292-H08H) (UniProt Q9BQ51 20-219)
T2 sequence (looked up): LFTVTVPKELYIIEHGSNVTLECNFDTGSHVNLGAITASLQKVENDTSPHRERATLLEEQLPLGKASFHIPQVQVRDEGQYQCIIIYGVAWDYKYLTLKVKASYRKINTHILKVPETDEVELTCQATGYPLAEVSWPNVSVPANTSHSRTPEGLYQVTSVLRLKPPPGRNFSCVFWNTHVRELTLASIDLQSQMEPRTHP


Legend:
[1] = target: mouse PD-L1 (Sino Biological, Cat #50010-M08H) (mouse, UniProt Q9EP73 19-238); assay: ELISA
[2] = target: T1, B7-H3 (Sino Biological, Cat #11188-H08H); assay: ELISA
[3] = target: T2, PD-L2 (Sino Biological, Cat #10292-H08H); assay: ELISA
[4] = target: T3, human PD-L1 expressed on cell surface (human, UniProt Q9NZQ7 19-290); assay: cell-based or functional assay
[5] = target: T4, cynomolgus PD-L1-His (Sino Biological, Cat. 90251-C08H) (cynomolgus, UniProt Q9NZQ7 19-238 (human entry)); assay: ELISA, coated cyno PD-L1-His
T4 construct: Bought protein; also called Cyno PD-L1; Cynomolgus PD-L1 ECD-His; not shown: His tag
Protocol: (§1) Briefly, Maxisorp plates (Nunc) were coated with 100 ul/well of 0.5 μg/ml human PD-L1-His (Sino Biological, Cat #10084-H08H) or cynomolgus PD-L1-His (Sino Biological, Cat. 90251-C08H) protein diluted in 1×PBS (GIBCO) overnight at 4° C. Plates were washed three times with 300 μl/well washing buffer (1×PBST, diluted from 20×PBST (Thermo Scientific) with distilled water)) and then blocked with 300 μl/well of blocking buffer (1×PBST/I % BSA) for 2 hours at RT on shaker (100 rpm). Plates were washed and added with 100 μl/well of testing antibodies, which were serial diluted with assay buffer (PBST/1% BSA). The antibodies were incubated at room temperature for 2 hours on plate shaker at 100 rpm. Plates were washed. One hundred microliter of horseradish peroxidase (HRP) conjugated detection antibody was added into each well and incubated at room temperature for 1 hour on plate shaker at 100 rpm. Plates were washed and added with 100 μl/well TMB substrate for color development at room temperature in dark for up to 10 minutes. After addition of 50 μl/well of stop solution (1N H₂SO₄), plates were read at 450 nm on a plate reader (SpectraMax M5).
(§2) Anti-HEL isotype control (Biolntron) was used as negative control.

[6] = target: T5, human PD-L1-His (Sino Biological, Cat #10084-H08H) (human, UniProt Q9NZQ7 19-238); assay: ELISA, coated human PD-L1-His
T5 construct: Bought protein; also called human PD-L1 ECD-His; recombinant human PD-L1-His protein; not shown: His tag
Protocol: as §1, §2

[7] = target: T4, cynomolgus PD-L1-His (Sino Biological, …); assay: BLI (Gator), cynomolgus PD-L1
[8] = target: T3, human PD-L1 expressed on cell surface; assay: flow cytometry, MDA-MB-231-GFP cells
Protocol: Cells were then resuspended in FACS buffer (1×DPBS/1% FBS) at 10⁶/ml concentration. One hundred microliter (100 μl) of cells were aliquoted into a single well in 96 well plates. The antibodies to be tested were serially diluted at 1:3 fold starting at 15 ug/mL and were then added into each well. The antibodies were mixed with cells and the mixtures were incubated on ice for 1 hour. […] After washing with FACS buffer, stained cells were resuspended at diluted […] (Biolegend, Cat #420404, used at 1:100 dilution) and analyzed on Guava 11HT (Luminex). Data was analyzed using Flowjo software.
as §2

[9] = target: T5, human PD-L1-His (Sino Biological, Cat …); assay: BLI (Gator), antibody on HFC probe, human PD-L1-His in solution
Protocol: The affinity of the binding of the exemplary anti-PD-L1 antibodies of the present disclosure was determined. Assay was performed according to the protocol recommended by Gator or Gator Plus (Gator Bio Inc.). Briefly, human PD-L1-His (Sino Biological, Cat #10084-H08H) was serially diluted 4-fold, starting at 4 μg/ml. After three times of regeneration in generation buffer (Gator Bio, Cat #120012) and neutralization of HFC probe (Gator Bio, Cat #160003), 1 μg/ml of antibody to be tested in Q buffer (Gator Bio, Cat #120010) was immobilized onto HFC probe. After a baseline step, probe immobilized with antibody was dipped into antigen solutions. The association and dissociation of antigen from antibody was measured on BLI machine Gator. Affinity was calculated using Gator Bio analysis software.
Table 22 below summarizes the binding affinity to human PD-L1 using Gator.

T3 sequence (Q9NZQ7 19-290 limits assumed): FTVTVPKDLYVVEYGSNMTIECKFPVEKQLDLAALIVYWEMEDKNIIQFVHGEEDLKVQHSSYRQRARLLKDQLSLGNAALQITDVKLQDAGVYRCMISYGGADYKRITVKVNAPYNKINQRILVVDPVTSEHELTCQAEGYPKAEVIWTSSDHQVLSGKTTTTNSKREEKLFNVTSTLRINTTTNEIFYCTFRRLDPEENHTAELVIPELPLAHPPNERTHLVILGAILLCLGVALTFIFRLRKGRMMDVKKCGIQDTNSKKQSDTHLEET
T4 sequence (Q9NZQ7 other isoform, or with tags, fused parts or gaps C08H C08H limits assumed): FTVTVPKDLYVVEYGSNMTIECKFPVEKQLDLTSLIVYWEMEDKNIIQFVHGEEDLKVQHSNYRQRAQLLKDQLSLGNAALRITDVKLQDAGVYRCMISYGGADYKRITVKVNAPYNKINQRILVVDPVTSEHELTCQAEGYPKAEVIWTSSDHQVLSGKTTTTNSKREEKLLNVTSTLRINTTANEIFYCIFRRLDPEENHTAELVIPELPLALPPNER
T5 sequence (Q9NZQ7 19-238): as the sequence (Q9NZQ7 other isoform, or with tags, fused parts or gaps C08H C08H limits assumed) above, with T33A, S34A, N62S, Q68R, R82Q, L173F, A185T, I192T, L215H counted along it
Chain of mouse PD-L1 (Sino Biological, Cat #50010-M08H) (Q9EP73 19-238 limits assumed, stated change not applied): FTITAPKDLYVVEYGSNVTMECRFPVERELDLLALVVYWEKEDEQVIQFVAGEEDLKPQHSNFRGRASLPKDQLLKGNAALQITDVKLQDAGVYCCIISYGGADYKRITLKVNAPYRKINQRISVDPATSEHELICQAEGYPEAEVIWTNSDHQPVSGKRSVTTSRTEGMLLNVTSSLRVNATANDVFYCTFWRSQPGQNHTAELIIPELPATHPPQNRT

Binder | binding result [1] | binding result [2] | binding result [3] | Internalization (%), FACS, 0.25 µg/ml, 2 h [4] [%] | Internalization (%), FACS, 0.25 µg/ml, 4 h [4] [%] | Internalization (%), FACS, 0.5 µg/ml, 2 h [4] [%] | Internalization (%), FACS, 0.5 µg/ml, 4 h [4] [%] | Internalization (%), FACS, 1 µg/ml, 2 h [4] [%] | Internalization (%), FACS, 1 µg/ml, 4 h [4] [%] | Internalization (%), FACS, 2 µg/ml, 2 h [4] [%] | Internalization (%), FACS, 2 µg/ml, 4 h [4] [%] | EC50 [5] [nM] | EC50 [6] [nM] | Kd [7] [nM] | koff [7] [s⁻¹] | kon [7] [M⁻¹ s⁻¹] | EC50 [8] [nM] | Kd [9] [nM] | koff [9] [s⁻¹] | kon [9] [M⁻¹ s⁻¹]
57F11 (antibody, human IgG1, V domains shown) VH: QEHLEESGGGLVQPEGALTLTCTASGFSFSGDYYMSWVRQAPGKGLEWIASIYTGSLNTYYATWAKGRFTISIASSTTVTLQVTSLTAADTATYFCARRTKNGDYGYFDLWGPGTLVTVSS VL: YDMTQTPASVEVAVGGTVTIKCQASQSINDRLAWYQQKPGQPPKLLIYAASTLASGVPSRFKGSGSGTEFTLTISDLECADAATYYCQQGWTVSSLENAFGGGTEVVAK | no binding | no binding | no binding | 17.9 | 21.3 | 19.7 | 14.7 | 16.7 | 16.8 | 14.5 | 15.4 | 0.0138 | 0.0216 | 0.27 | 0.000101 | 373000 | 1.24 | 0.31 | 0.000113 | 371000
73C8 (antibody, human IgG1, V domains shown) VH: QEQLEESGGGLVQPEGSLTLTCTVSGFSFSGDYYMSWVRQAPGKGLEWVASIYTGSLNTYYATWAKGRFTISLTSSTTVTLQMTSLTAADTATYFCARRNKNADYGHFDLWGPGTLVTVSS VL: YDMTQTPASVEVAVGGTVTIKCQASQSINDRLAWYQQKPGQPPKLLIYAASTLASGVPSRFRGSGSGTDFTLTISDLECADAATYYCQQGWTVSSLDNAFGGGTEVVAM | no binding | no binding | no binding | 22 | 15.6 | 17.8 | 23 | 19.5 | 15.7 | 22.5 | 21.7 | 0.0121 | 0.016 | ≤ 0.03 | ≤ 1e-05 | 344000 | 1.81 | 0.12 | 9.39e-05 | 804000
69D10 (antibody, human IgG1, V domains shown) VH: QEQLEESGGGLVQPEGSLTLTCTASGFSFSGDWYMSWVRQAPGKGLEWIASIYSGSLNTYYATWAKGRFTVSLTSSTTVTLQMTSLTAADTATYFCARRNKNADYGHFDLWGPGTLVTVSS VL: YDMTQTPASVEVAVGGTVTIKCQASQSIGNALAWYQQKPGQPPKLLIYATSTLASGVPSRFKGSGSGTEFTLTISDLECGDAATYYCQQGWTVSSLDNAFGGGTEVVAK | no binding | no binding | no binding | 18.2 | 15.9 | 16.2 | 18 | 15.9 | 18.2 | 17.7 | 21.2 | 0.0177 | 0.0215 | 0.18 | 7.7e-05 | 428000 | 2 | 9.09 | 0.00653 | 718000
62E6 (antibody, human IgG1, V domains shown) VH: QEQLEESGGDLVKPEGSLTLTCTASGFSFSGDYYMSWVRQAPGKGLEWIASIYTGSLNIYYATWAKGRFTISLTSSTTVTLQMTSLTAADTATYFCARRNKNADYGHFDLWGPGTLVTVSS VL: YDMTQTPASVEVAVGGTVTIKCQASQSINDRLAWYQQKPRQPPKLLIYGASTLASGVPSRFKGSGSGTEFTLTISDLECVDAATYYCQQGWTVSSLDNAFGGGTEVVAK | no binding | no binding | no binding | 22.3 | 21 | 12.2 | 24 | 16.4 | 17.7 | 16.1 | 17.9 | 0.0188 | 0.024 |  |  | 313000 | 2.03 | 0.43 | 0.000342 | 788000
74A9 (antibody, human IgG1, V domains shown) VH: QSVEESGGRLVTPGTPLTLTCAVSGFSLSTYALGWVRQAPGKGLEWIGSISIGGATYYASWAKGRFTISKTSTTVDLKIASPTTEDTATYFCARNVDSIYLDAFHTWGPGTLVTVSL VL: DIVMTQTPASVEAAVGGTVTIKCQASQNIYNNLAWYQQKPGQPPKLLIYRASTLASGVPSRFKGSGSGTEYTLTISDLECDDAATYYCQTYYLTTTTNAFGGGTEVVVK | no binding | no binding | no binding | 11.5 | 11 | 13.2 | 12 | 17.7 | 9.2 | 13.9 | 11.7 | 0.0198 | 0.0229 | 3.09 | 0.000915 | 296000 | 0.34 | 0.36 | 0.000234 | 643000
